These results are taken from the DeepSol protein solubility set.

This data set can be described thus: soluble on expression in E. coli; label from the status in PepcDB or PDB records.
In the case of “MGTKTKKTLFNVDEQMKAIAAQFETLQILNEKGEVVNEAAMPELSDDQLKELMRRMVYTRVLDQRSISLNRQGRLGFYAPTAGQEASQLASHFALEAEDFILPGYRDVPQLVWHGLPLYQAFLFSRGHFMGNQMPENVNALAPQIIIGAQIIQTAGVALGMKLRGKKSVAITYTGDGGASQGDFYEGMNFAGAFKAPAIFVVQNNRYAISTPVEKQSAAKTVAQKAVAAGIYGIQVDGMDPLAVYAATAFARERAVNGEGPTLIETLTFRYGPHTMAGDDPTRYRTKDIENEWEQKDPIVRFRAFLENKGLWSQEVEEKVIEEAKEDIKQAIAKADQAPKQKVTDLMEIMYEKMPYNLAEQYEIYKEKESK”, the “soluble on expression in E. coli” value was “not soluble”.

With “MGHHHHHHSHMDDPLLVELQAEDYWYEAYNMRTGARGVFPAYYAIEVTKEPEHMAALAKNSDWVDQFRVKFLGSVQVPYHKGNDVLCAAMQKIATTRRLTVHFNPPSSCVLEISVRGVKIGVKADDSQEAKGNKCSHFFQLKNISFCGYHPKNNKYFGFITKHPADHRFACHVFVSEDSTKALAESVGRAFQQFYKQFVEYTCPT”, the “soluble on expression in E. coli” value was “soluble”.

As to “MRKVTLMDVFTHPIAQKYLQRSGVAHAIACAYHAYRLSVKADINPDLAAKAALLHDIGHYEWYTDGKWDYEKYKRNDIHAIKGAERAHKLLIRLGEEPKAAKEIALAILLHTDSYLPEGELDKNTLQQIVKKADELDEEPGGHHHYRQIDPSTARKKIEKLDQLIDQAQASVIKPV”, the “soluble on expression in E. coli” value is “not soluble”.

For the sequence “MESSKKTSRSRSTTQEAVRDIKKYIRDNRLRTGDLLPSEAFLCEELGCSRSAIREAIRALVTLDIVEVRHGYGTFVSRMSLEPLINGMVFRTVLDNDTSVENLFYVVDTREILDLSLGEELIEVFTDDDRELLLDLVDKMREHNDQGESFVVEDQKFHRALLARTKNPLIRELNDAFWQIQTEAQPMLNLAMPADIDETIKAHSDIVEALSSGNIDDYRSAVLAHYAPFRRMISNMLDAH”, the “soluble on expression in E. coli” value is “not soluble”.

Turning to “MGSDKIHHHHHHMSEKTLYQKLQNIHKKVPYIQKSQQASQYSYAGSSDVLGTIHGLMDEEKLILIPQITNKNTETSQNRKGSTVIFTELMMTMTWVNSDNPDEKLECQWYAQGIDTAGEKGVGKALTYGEKYFLLKFFNVATDDLDPDAFQENVKAQKAPELINDEQKKTLKELFNSMASVTKTPIEKVSKAYLKKVNSDSIEKLQEDTAIGLIELVTNQLNKQTEKAGK”, the “soluble on expression in E. coli” value is recorded as “not soluble”.

For the sequence “MSLADRLLDIKRIYHEPGIERFPRARAVLERYPDAERVEVLSHQAIPGLYGNEGNVEDWVRNKREVMVIGEKKSLSARRNERSSDWIAPSTANGCAMACSYCYVPRRKGYANPITVFANIEKITGYLERHAARQGAKPEPNQCDPIDWVYDIGENSDCSADAMVSDNVRDLVDLFGRIPNAKASFATKLVNRDLLTYEPRGGTRVRFSLMPAETSRLVDVRTSKISDRIAAIDDFVEAGYEVHLNFSPVIVHENWIADWADLLEQIADQTNDRTRRQLAAEVIFLTHNEGLHDVNLGWHPKGEELLWRPDLQQLKRSQSGQWNVRYKSPWKGKWVQQMTDLVADRLPDCRIRYAEGHHHHHH”, the “soluble on expression in E. coli” value is “not soluble”.

As for “AGDIAIIGLAGRYPKAANIHEFWNNLKEGKDCVSEIPESRWDWQRLEGITSPSGKDISKWGGFIDDPDCFDPQFFRITPREAETMDPQERLFLETCWETIEDAGYTPKTLAKPKGRNKRQHVGVFAGVMHKDYTLVGAEEASAENVFPLSLNYAQIANRVSYFCNFHGPSMAVDTVCSSSLTAVHLALESIRHGECDVALAGGVNLSLHPNKYMTYGVWDMFSTDGHCRTFGKDGDGYVPAEGIGAVLLKPLRQAEEDGDRIYAVIKGSAVNHVGTVSGISVPSPVSQADLIETCLEKTGIDPRTISYVEAHGTGTSLGDPIEIQGLVKAFRQYTQDRQFCSIGSVKSNIGHAESAAGISGLSKVALQLHHQKLVPSLHSEELNPYVDFEKSPFYVQHETETWKQPVIKENGEDVPYPRRAGISSFGATGSNAHIILEEH”, the “soluble on expression in E. coli” value is “soluble”.

As for “ATEEEYQLFLEPYLQETRLGAYDFPLFSTIFKAFSKKGSFKSLIDPYCFGQALSNGRAITFVVTHDIPNNDVFLDLIMDEEDEWIAYAYILGRDGGVPLVYTDLDTSGIKNKNGKPRWKDAWNDPRMAKMIAFHNVTHGESMTVLEGNDDMLVLKRGEKGIVVLNKSTRAQSLSLKTECDWFDLMSDQSVKAGIELKVPAKSFMLLVQK”, the “soluble on expression in E. coli” value is reported as “not soluble”.

As for “MRNIMAGFLIFLSSAAYADINLYGPGGPHTALLDAAKLYAEKTGIIVNVHYGPQNKWNEDAKKNADILFGASEQSALAIIRDHKDSFSEKDIQPLYLRKSILLVKKGNPKNIRSIDDLTRPGIGVIVNDGGGTSNTSGTGVWEDIAGRKGNIETVAAIRKNIILYAPNSGTARKALENQPGADVWITWADWAASNPEIGDVVEIAPDYVIWRDMNITVRQDANDETRRFAEWLQTDEAAPAFKKYGWTRKGT”, the “soluble on expression in E. coli” value is “not soluble”.

Consider “MSLMFERSPDDPLPLVYACSGCSNVAQLANDLALRLDRARLAEMSCIAGVGGDVPLLVRRARSGRPILALDGCPLHCVKGCLARHEVVPTLHLTLSEHGLKKRYGEDCEAQDAERLFVELERLLTPGGKRRCEEGHHHHHH”, for which the “soluble on expression in E. coli” value is on record as “soluble”.

In the case of “MGSDKIHHHHHHMKQILFMDTTLRDGEQSPGVNLNEQEKLQIARQLERLGIHVMEAGFAAASEGDFQSVKRIANTIQNATVMSLARAKESDIRRAYEAVKGAVSPRLHVFLATSDIHMKYKLCMSKEDVLDSIHRSVTLGKSLFPTVQFSAEDATRTARDFLAEAVEVAIRAGANVINIPDTVGYTNPEEYYSLFKYLQESVPSYEKAIFSCHCHDDLGMAVANSLAAVEGGALQVEGTINGIGERAGNAALEEVAVALHIRKDFYQAEPSMTLKEIKATSTLVSRLTGMVVPKNKAIVGANAFAHESGIHQDGVLKEVTTYEIIEPELVGESQNLFVLGKHSGRHAFTEKMKELGYEFTTEERDAVFEAFKKLADRKKEITEEDLRALMLGEAAFAAQQYNITQLQVHFVSNSTQCATVVLKDEEGNVFEDAATGSGSIEAIYNAIQRILGLECELADYRIQSITQGQDALAHVHVELKEGTHQVSGFGVAQDVLEASARAYVHAAGKLKSFIQLVK”, the “soluble on expression in E. coli” value is “not soluble”.

For the sequence “MRPLDENLRTSAASRPAQSLSVRGQPEAESGAFGEAIADAGRRRTQGQGGQTSADDARRDSVANGGNASAVPKADGFGADVPASTADAASPDARPAYERAIITRDQAAKRLQHSHPAGTRHLSQGREDGGEEIAQPAERAVVRSRETVQTSRDSVDEASGVTAREGGENGDPASGTVSDLLSMLTGAAPAVAAASQPEGRAKPASAVRDGSDGPAKAVGGISPAVPDGEHPQTGEGTGGSEPDRLFRFARADGKGQAVSMNISRDGERAVVENSRSSVKPGVETVTVLEARRYLGLAVNENATSVTTAIAGDSGWAEALQSSAATTKPEAWSQAGKTLNTLKIQMHPVDLGMVTATLRLKDDELQVDLKVETGEAFRQLRDDQSEMVKALRAQGFAVDQVNIVFNGGGDSASGGGGQSQAQAQLGYEGRERAGDDGQGRQPRDGGRAATERWAGNDATDDVPDGAERSRAGHVYM”, the “soluble on expression in E. coli” value is on record as “not soluble”.

With “MRSLIGMTFLNSSVGQRRLRQNGIVLRLGPVVADRRRATLPHRQGHCLDRQDLETLLLWLQRHFLCVPLEHLLEGPAPACLRIALSVDGNPAELAEQVYPLLERYEMPASAFIGGDPRSWREAVAETLWQADATAAGPLLELLEGYSGAALMAVFERTGDDQRRSRNLDLLLRKLERLDPASQQALHAACPVPAPYSAGDWERVRRLENSGLLRFGLRGQEPHPSAGLCAEDCLGRAHRQLQQHCAAPLPVFCQARTTPAAQPGLRAALGRLGYRFAFGARNGLVDTRCDPLDLPRIEVDAAIAARPGRLAWHIYRGARP”, the “soluble on expression in E. coli” value is “not soluble”.

For the sequence “MVSMNMFEEVEVEAYVYPTEDIEKVKKAMLNLVPGLKFEAFDKGEYMILVGRTRDKRALQRLYELFRGQQILDTARMMLEEGYFGEEIIIKVHKQVAYVGKVNFNEESPLGPITIIIRTKEPQKLMKWLAPRTKDGVPIEAAALEHHHHHH”, the “soluble on expression in E. coli” value is “not soluble”.
